Substrate in the data set: OC[C@H]1O[C@@](CO)(O[C@H]2O[C@H](CO)[C@@H](O)[C@H](O)[C@H]2O)[C@@H](O)[C@@H]1O
The data set can be described thus: DNS reducing sugar assay, Michaelis-Menten fit. It is filed as biochemical, Rhodotorula dairenensis. As to conditions: 50 mM sodium phosphate pH 5.5, 60 °C, sucrose 1-200 mM. From the text:
DNS reducing sugar assay, Michaelis-Menten fit on RdINVΔ21–139

One may read the Km as the substrate concentration at which the rate is half of its maximum. As usually defined, the kcat is the maximal rate divided by the concentration of active sites. The kcat/Km is the second-order rate constant that governs catalysis at low substrate concentration.

B1: RdINVΔ21–139 (Rhodotorula dairenensis) (protein)
chain: SSSCAPTSLPASATELPTTVPTGTVITGDYTGSYRPQVHYSPPKGFMNDPNGCHRDRNGTYHLYYQYNPLEYVAGNQHWGHATSDDLYHWTNQPIAIFPPNSTSQVFSGSAVLDPNNTSGFFPNTTDGVVAVYTLNTPTLQVQEVAYSTDGGYNFTPYENNPVLSVGSNQFRDPKVFWYEDHWVMAVAAANDFTIEIYTSPNLTSWTFASNFTHHGLLGLAYECPNLVQVPFQDDPSKSAWLMYISINPGAPLGGSVGQYFPGDFNGTHFVAYDSAARIADFAKDNYASQWFADTENGESISIAWASNWQYTQQVPTSAQAFRSAMSLPRRNYLTNITRLGWDLVSLPYDLSPVVGPSLLSSSEANSTADVDFTNVTSNAVWFSLNVTLPDAAIQNASLISADASINITFLPSTKCSSSSGSGSDSPAATLTYFYAGLTNGALALTRPAASSSWGAENPFFTDKFSYTLVDPLTSLVGVFDRSMLEVFVNEGAHSATMLVFPDSPVGSMKVATGGLPEGTQVNLQVNGLESTWQSS
notes: truncated: residues 21-139 deleted after the signal peptide (residues 140-675 remain); secreted by Komagataella phaffii, glycosylated, ~100 kDa; homodimer; deglycosylated for crystals
In the case of B1, the Km stood at 9 ± 1 mM, the kcat is 16400 ± 216 s⁻¹ and the kcat/Km turned out to be 1.781e+06 ± 16000 M⁻¹ s⁻¹.

Source of the values: publication PMC9741242, “Insights into the Structure of the Highly Glycosylated Ffase from Rhodotorula dairenensis Enhance Its Biotechnological Potential” (International Journal of Molecular Sciences, 2022).
